B1: mouse lipoprotein lipase (LPL), recombinant, purified (enzyme)
chain: ADAGRDFSDIESKFALRTPEDTAEDTCHLIPGLADSVSNCHFNHSSKTFVVIHGWTVTGMYESWVPKLVAALYKREPDSNVIVVDWLYRAQQHYPVSAGYTKLVGNDVARFINWMEEEFNYPLDNVHLLGYSLGAHAAGVAGSLTNKKVNRITGLDPAGPNFEYAEAPSRLSPDDADFVDVLHTFTRGSPGRSIGIQKPVGHVDIYPNGGTFQPGCNIGEAIRVIAERGLGDVDQLVKCSHERSIHLFIDSLLNEENPSKAYRCNSKEAFEKGLCLSCRKNRCNNLGYEINKVRAKRSSKMYLKTRSQMPYKVFHYQVKIHFSGTEDGKQHNQAFEISLYGTVAESENIPFTLPEVSTNKTYSFLIYTEVDIGELLMMKLKWISDSYFSWPDWWSSPSFVIERIRVKAGETQKKVIFCAREKVSHLQKGKDSAVFVKCHDKSLKKSG

Assay [1] concerns the target T1, soluble mouse S-GPIHBP1 (acidic stretch and adjacent tyrosines replaced with an S-protein tag) (mouse, UniProt Q9D1N2 23-198, residues 32 to 48 replaced with the S-protein tag (KETAAAKFERQHMDS)).
T1 sequence: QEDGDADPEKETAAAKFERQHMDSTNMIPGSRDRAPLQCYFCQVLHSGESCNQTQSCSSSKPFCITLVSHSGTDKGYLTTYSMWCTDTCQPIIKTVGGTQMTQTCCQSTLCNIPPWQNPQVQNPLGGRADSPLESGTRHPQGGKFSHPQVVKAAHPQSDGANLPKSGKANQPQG
The assay can be described thus: SPR; 150 mM NaCl. Background: Surface plasmon resonance follows binding to a sensor surface in real time, without labels.

Assay [2] deals with T1, soluble mouse S-GPIHBP1 (acidic stretch …). Nature of the assay: SPR; 750 mM NaCl.
For assay [3] the target is unchanged. Nature of the assay: SPR; 150 mM NaCl. This is another data set of the same source.
The target is the same in assay [4]. Nature of the assay: SPR; 750 mM NaCl. This is another data set of the same source.
Assay [5] shares this target. The assay can be described thus: SPR; LPL bound to heparin DP4, 150 mM NaCl.
Assay [6] has the same target. Nature of the assay: SPR; LPL bound to heparin DP4, 150 mM NaCl. This is another data set of the same source.
For assay [7], the target named is B1. Nature of the assay: SPR; 150 mM NaCl.
For assay [8], the target named is B1. The assay can be described thus: SPR; 750 mM NaCl.
Assay [9] has as its target B1. The assay can be described thus: SPR; 150 mM NaCl.
The target of assay [10] is B1. Nature of the assay: SPR; 750 mM NaCl.
Assay [11] concerns the target T2, mouse lipoprotein lipase (LPL), recombinant, purified (mouse, UniProt P11152 28-474).
T2 construct: lipoprotein lipase, mouse; expressed in Drosophila S2 cells; also called mouse LPL; purified mouse LPL; source: Drosophila S2 cells, purified to homogeneity by heparin-Sepharose chromatography
T2 sequence (looked up): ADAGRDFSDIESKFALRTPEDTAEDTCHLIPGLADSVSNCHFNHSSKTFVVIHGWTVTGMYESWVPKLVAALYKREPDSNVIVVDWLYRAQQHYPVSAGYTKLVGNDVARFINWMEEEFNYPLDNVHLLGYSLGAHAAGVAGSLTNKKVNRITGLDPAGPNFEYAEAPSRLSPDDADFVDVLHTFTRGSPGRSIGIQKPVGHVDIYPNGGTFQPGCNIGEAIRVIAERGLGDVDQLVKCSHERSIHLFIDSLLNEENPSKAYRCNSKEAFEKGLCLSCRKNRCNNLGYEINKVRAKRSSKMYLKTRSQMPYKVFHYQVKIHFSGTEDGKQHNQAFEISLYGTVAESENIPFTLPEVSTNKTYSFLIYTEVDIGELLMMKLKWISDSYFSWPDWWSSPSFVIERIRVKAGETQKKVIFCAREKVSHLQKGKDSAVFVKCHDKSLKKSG
Nature of the assay: SPR; Biacore T200; mouse LPL captured on the chip with immobilised antibody 27A; WT-GPIHBP1 (0.25-4 nM) or S-GPIHBP1 (2-32 nM) injected, single-cycle kinetics, 50 μL/min, 20°C; 10 mM HEPES pH 7.4, 150 mM NaCl, 4 mM CaCl2, 0.05% P20, 0.2 mg/mL BSA. To be noted: both partners purified.

By koff is commonly meant a measure of how fast the partners let go of each other. By Kd is commonly meant the concentration at which binding is half-saturated. Consider B1, for which the results for the koff in [1], in [2] and in [5] were 0.0167 s⁻¹, 0.0495 s⁻¹ and 0.0211 s⁻¹, respectively. The figures for the Kd in [3], in [4] and in assay [6] were 107 nM, 183 nM and 290 nM, respectively.

B2: soluble WT mouse GPIHBP1 (residues 23-198) (domain or fragment, UniProt Q9D1N2 23-198, looked up)
chain: QEDGDADPEPENYNYDDDDDEEEEEETNMIPGSRDRAPLQCYFCQVLHSGESCNQTQSCSSSKPFCITLVSHSGTDKGYLTTYSMWCTDTCQPIIKTVGGTQMTQTCCQSTLCNIPPWQNPQVQNPLGGRADSPLESGTRHPQGGKFSHPQVVKAAHPQSDGANLPKSGKANQPQG
modifications: sulfated tyrosines in the acidic domain (Tyr35, Tyr37): one half of the molecules contained 2 sulfated tyrosines, the other half only 1
notes: lacks the carboxyl-terminal signal peptide that triggers the addition of a GPI anchor; Homogeneous and monodisperse preparation after removal of low levels of oligomers by SEC; also called WT-GPIHBP1; purified WT-GPIHBP1
Take B2: the koff in assay [7] is 0.0125 s⁻¹; in assay [8], 0.0143 s⁻¹. Besides, the Kd in assay [9] is 0.93 nM; in assay [10], 20 nM. The binding result in [11] is “binds”.

(Values after PMC8884915, “Electrostatic sheathing of lipoprotein lipase is essential for its movement across capillary endothelial cells” (The Journal of Clinical Investigation, 2022).)
